Experimental findings from patent US20070036811A1 (KRAEFTENS BEKAEMPELSE, published 2007) are described below.

The test deals with HLA-A2 (human). Briefly: assembly assay, T2 cells, [35S]-labelled class I MHC, immunoprecipitation and IEF.

Where only a bound is given, the exact number is not on record here.

B1: ML-IAP83 (GMGSEELRL) (peptide)
peptide: GMGSEELRL
notes: Synthetic peptide bought from Research Genetics, >80% purity
With B1, the “C50 (peptide concentration for half maximal binding)” value came to 30 µM.

B2: ML-IAP54 (QILGQLRPL) (peptide)
peptide: QILGQLRPL
notes: as for B1
Take B2: the “C50 (peptide concentration for half maximal binding)” value was 1 µM.

B3: ML-IAP230 (VLEPPGARDV) (peptide)
peptide: VLEPPGARDV
notes: as for B1
Consider B3, for which the “C50 (peptide concentration for half maximal binding)” value is over 100 µM.

B4: ML-IAP98 (PLTAEVPPEL) (peptide)
peptide: PLTAEVPPEL
notes: as for B1
Regarding B4, the “C50 (peptide concentration for half maximal binding)” value was over 100 µM.

B5: ML-IAP99 (LTAEVPPEL) (peptide)
peptide: LTAEVPPEL
notes: as for B1
With B5, the “C50 (peptide concentration for half maximal binding)” value is 0.9 µM.

B6: ML-IAP245 (RLQEERTCKV) (peptide)
peptide: RLQEERTCKV
notes: as for B1
On to B6, for which the “C50 (peptide concentration for half maximal binding)” value is 1 µM.

B7: ML-IAP34 (SLGSPVLGL) (peptide)
peptide: SLGSPVLGL
notes: as for B1
With B7, the “C50 (peptide concentration for half maximal binding)” value came out at 1 µM.

B8: ML-IAP154 (LLRSKGRDFV) (peptide)
peptide: LLRSKGRDFV
notes: as for B1
Take B8: the “C50 (peptide concentration for half maximal binding)” value turned out to be 10 µM.

B9: ML-IAP280 (QLCPICRAPV) (peptide)
peptide: QLCPICRAPV
notes: as for B1
Consider B9, for which the “C50 (peptide concentration for half maximal binding)” value was determined as 20 µM.

B10: ML-IAP90 (RLASFYDWPL) (peptide)
peptide: RLASFYDWPL
notes: as for B1
As for B10, the “C50 (peptide concentration for half maximal binding)” value was 0.2 µM.
